The text below walks through data of patent publication US20240190966A1.

Usually Kd stands for the free concentration of one partner at which half of the binding sites on the other are occupied at equilibrium, for simple one-to-one binding. Usually koff stands for the first-order rate constant of dissociation. One may read the kon as the rate constant with which the complex forms.

Substitutions are numbered along the chain they refer to. “And” between values parts separate entries of the source, which are not always exact repeats. Equal values may be shown once. Read-outs that look alike come from different tables or passages of the source.

Assay [1] concerns the target T1, 27mer cyno CD3 polypeptide conjugated to biotin (cynomolgus monkey).
T1 sequence (peptide, biotin conjugated (site not stated)): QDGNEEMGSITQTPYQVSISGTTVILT
Kind of assay: BIAcore T200 SPR; biotinylated 27mer CD3 peptide on SA chip; TDB flowed at 37 C.

Assay [2] has the same target. The description is as above. This is another data set of the same source.
Assay [3] has as its target cynomolgus monkey LY6G6D-Fc (cynomolgus monkey). Description: BIAcore SPR; LY6G6D-Fc immobilized; TDB flowed at 37 C.
Assay [4] has the same target. Kind of assay: BIAcore SPR; two-cell TDB with 38E4.v1 arm. In general terms: Surface plasmon resonance follows binding to a sensor surface in real time, without labels.
For assay [5] the target is unchanged. Kind of assay: BIAcore SPR; LY6G6D-Fc immobilized; TDB flowed at 37 C. The source holds these as a separate data set.

B1: LY6G6D TDB assembled using a one-cell system, anti-LY6G6D 20A12.QNTv12 arm (one-cell) and anti-CD3 38E4v1 (WT) arm (bispecific antibody, V domains shown)
VH 1: EVQLLESGGGLVQPGGSLRLSCAASGFDFVNNAMIWVREAPGKGLEWVSALSFADNTAYYATWASGRFTISRDSSKTTVYLQMNSLRAEDTAVYYCMRGDLWGPGTLVTVSS
VL 1: DIQMTQSPSTLSASVGDRVTITCQASESITRYLNWYQKKPGKAPKLLIYDASKLPSGVPSRFSGSGSGTEFTLTISSLQPDDFATYYCQSTSFRGRSYQNTFGGGTKVEIK
VH 2: EVQLVQSGAEVKKPGASVKVSCKASGFTFTSYYIHWVRKAPGQGLEWIGWIYPENDNTKYNEKFKDRVTITADTSTSTAYLELSSLRSEDTAVYYCARDGYSRYYFDYWGQGTLVTVSS
VL 2: DIVMTQSPDSLAVSLGERATINCKSSQSLLNSRTRKNYLAWYQEKPGQSPKLLIYWTSTRKSGVPDRFSGSGSGTDFTLTISSLQAEDVAVYYCKQSFILRTFGQGTKVEIK
B1 had a dissociation constant Kd in assay [1] of 15.9 nM. Moreover, in assay [2], the Kd is 15.4 nM and 16.5 nM; the koff is 0.0399 s⁻¹ and 0.0437 s⁻¹; the on-rate constant (kon) is 2.6e+06 M⁻¹ s⁻¹ and 2.65e+06 M⁻¹ s⁻¹.

B2: LY6G6D TDB assembled using a one-cell system, anti-LY6G6D 20A12.QNTv12 arm (one-cell) and anti-CD3 38E4.v1 MD4 arm (bispecific antibody, V domains shown)
VH 1: B1 VH 1
VL 1: B1 VL 1
VH 2: B1 VH 2
VL 2: B1 VL 2 with S49P, T57A
B2: the Kd in assay [1] was 14.4 nM. In assay [3], this molecule gave a Kd of 2.62 nM, a koff of 0.000574 s⁻¹ and a kon of 219000 M⁻¹ s⁻¹. Besides, in assay [2], the Kd is 14 nM and 14.7 nM; the koff was 0.0433 s⁻¹ and 0.0426 s⁻¹; the kon was 3.09e+06 M⁻¹ s⁻¹ and 2.89e+06 M⁻¹ s⁻¹.

B3: LY6G6D TDB comprising the anti-LY6G6D 20A12.QNTv12 arm (two-cell) and the anti-CD3 38E4.v1 arm (bispecific antibody, V domains shown)
VH 1: B1 VH 1 with E39Q
VL 1: B1 VL 1 with K38Q
VH 2: B1 VH 2 with K39Q
VL 2: B1 VL 2 with E44Q
For the molecule B3, the Kd is 14.8 nM in assay [1]; 2.29 nM in assay [4]; 1.92 nM in assay [3]; 13 nM and 16.5 nM in assay [2]; 2.29 nM in assay [5]. The koff is 0.000444 s⁻¹ in assay [3]; 0.0337 s⁻¹ and 0.0364 s⁻¹ in assay [2]; 0.00038 s⁻¹ in assay [5]. Further, the kon in assay [3] was 231000 M⁻¹ s⁻¹; in assay [2], 2.6e+06 M⁻¹ s⁻¹ and 2.21e+06 M⁻¹ s⁻¹; in assay [5] it was 166000 M⁻¹ s⁻¹.

B4: LY6G6D TDB assembled using a one-cell system, anti-LY6G6D 20A12.QNTv12 arm (one-cell) and anti-CD3 38E4.v1 MD1 arm (bispecific antibody, V domains shown)
VH 1: B1 VH 1
VL 1: B1 VL 1
VH 2: B1 VH 2
VL 2: B1 VL 2 with S49P, T57A, K61E, K95T
In turn, B4 returned a Kd in assay [1] of 26.1 nM. In assay [3], the Kd is 3.63 nM, the koff was 0.000512 s⁻¹ and the on-rate (kon) is 141000 M⁻¹ s⁻¹. In assay [2], the Kd is 26.6 nM and 25.6 nM; the koff is 0.0383 s⁻¹ and 0.0376 s⁻¹; the kon is 1.44e+06 M⁻¹ s⁻¹ and 1.47e+06 M⁻¹ s⁻¹.
